# In PMC5458078, “Global mapping of CARM1 substrates defines enzyme specificity and substrate recognition” (Nature Communications, 2017):
# System: MCF7 CARM1 KO cells
# Assay: In vivo methylation of BAF155, stable expression, western blot
# Type: cell-based, human
# Excerpt: We next sought to assess the impact of CARM1 N-terminal deletion in cells stably expressing mutant enzymes. […] To quantify the affected ADMA-containing peptides in MCF7 CARM1 KO and CARM1 140–608 expressing cells, we employed our quantitative MS method (Fig. 1a) using CARM1 28–608 as a reference for normalization (Supplementary Data 4). […] The magnitude of reduction in CARM1 140–608 cells, however, was slightly less than that in the CARM1 KO cells. […] As indicated by R^2 of 0.65, noticeable differences existed between the levels of ADMA-containing peptides in cells expressing the N-terminal truncation of CARM1 and CARM1 28–608 control (Supplementary Fig. 4f).
# Cells were collected by trypsinization, washed with Dulbecco's phosphate buffer saline (Life Technologies, Carlsbad, CA) and lysed by suspension in lysis buffer (50 mM Tris-HCl pH 8.0, 150 mM NaCl, 10% glycerol, 0.5% Triton X-100 and 1 × protease inhibitor cocktail (Sigma-Aldrich)). After brief sonication followed by centrifugation, total protein was quantified using the BioRad Protein Assay (BioRad, Hercules, CA), and 20 μg protein was resolved by SDS–PAGE. Proteins were transferred to a nitrocellulose membrane for 1.5 h at 350 mA. Membranes were blocked with 5% nonfat milk at room temperature for 1 h and incubated overnight with diluted primary antibody at 4 °C. […]
molecule,measurement,value
"CARM1 140–608: CARM1 140–608 lacks the first 140 residues encompassing the EVH1 domain (protein, left off: FLAG, end not stated, kept, CARM1 140–608 lacks the first 140 residues encompassing the EVH1 domain) RTEESSAVQYFQFYGYLSQQQNMMQDYVRTGTYQRAILQNHTDFKDKIVLDVGCGSGILSFFAAQAGARKIYAVEASTMAQHAEVLVKSNNLTDRIVVIPGKVEEVSLPEQVDIIISEPMGYMLFNERMLESYLHAKKYLKPSGNMFPTIGDVHLAPFTDEQLYMEQFTKANFWYQPSFHGVDLSALRGAAVDEYFRQPVVDTFDIRILMAKSVKYTVNFLEAKEGDLHRIEIPFKFHMLHSGLVHGLAFWFDVAFIGSIMTVWLSTAPTEPLTHWYQVRCLFQSPLFAKAGDTLSGTCLLIANKRQSYDISIVAQVDQTGSKSSNLLDLKNPFFRYTGTTPSPPPGSHYTSPSENMWNTGSTYNLSSGMAVAGMPTAYDLSSVIASGSSVGHNNLIPLANTGIVNHTHSRMGSIMSTGIVQGSSGAQGSGGGSTSAHYAVNSQFTMGGPAISMASPMSIPTNTMHYGS",In vivo methylation of BAF155,impaired in vivo methylation of BAF155
